Here are results for 1 molecule from publication PMC10272187, “PPP2R1A regulates migration persistence through the NHSL1-containing WAVE Shell Complex” (Nature Communications, 2023).

The test addresses T1, WAVE1 (1-230) (UniProt Q92558 1-230).
T1 construct: WAVE1 residues 1-230; also called WAVE1 N-terminus; source: E.coli, purified
T1 sequence (looked up): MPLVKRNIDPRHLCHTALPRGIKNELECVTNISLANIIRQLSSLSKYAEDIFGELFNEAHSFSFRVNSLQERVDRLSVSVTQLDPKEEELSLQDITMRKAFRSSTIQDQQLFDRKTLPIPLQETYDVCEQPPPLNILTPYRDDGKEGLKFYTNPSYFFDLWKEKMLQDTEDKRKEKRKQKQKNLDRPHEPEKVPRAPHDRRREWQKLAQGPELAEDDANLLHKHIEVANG
Nature of the test: SEC; Recombinant subunits expressed individually; CYFIP1-NCKAP1 dimer and BRK1-ABI1-NHSL1 (or WAVE1) trimer reconstituted; pentamers purified on SOURCE 15Q and Superdex 200 (24 ml column). The settings on record: both partners purified. On the technique in general: SEC sorts molecules by how far they enter the pores of the column.

B1: BRK1 (recombinant) (natural protein, UniProt Q8WUW1 1-75, looked up)
chain: MAGQEDPVQREIHQDWANREYIEIITSSIKKIADFLNSFDMSCRSRLATLNEKLTALERRIEYIEARVTKGETLT
notes: BRK1; source: E.coli, purified
On to B1, for which the binding result is given as “binds”.
